Data taken from the DeepSol protein solubility set.

Experiment: soluble on expression in E. coli; label from the status in PepcDB or PDB records

Soluble on expression in E. coli, not soluble:
MGSDKIHHHHHHMWDWIGKLDELRRSNQLAVLVTVTKSSGSTPRKHGAKMIVLPDGTFYGTVGGGTPEYYALEDARACFETMQSTTSSVPLKQRGEFPACGGTMEFYMEVINDNPVLHLFGAGHIGQSLCQILDGTPFRIHLIDEREEWINAPNLPGSVIRHQRHYSDFIEKAIWCDKRTFVAIQTFSGTLDQQVLEEVLPNPTRYVGMIGSKAKWAKVRSNLEEKGLDLSAVRCPIGHDNGGNSPREIAISIASQLLSTYYGRE, MGSDKIHHHHHHMWDYDRLFEIIEELVMHHSPSGAEAEINQLLMQRFAALGVEVWCDRADNIIAKIPGKNPDRAMSNDKPLLYERLRQRAYAITAHKDEIGAIVKSLGDEGRVEVRKLGGSFPWVYGEGVVDLLGDRETISGILSFGSRHVSHESPQKVQQEDTTVKWENAWIETKRTTDELEAAGVRPGTRMVIGKHRKHPIRLKDHIASYTLDNKASVAILLALAENLKQPVVDVYLVASAKEEVGAIGALFFTQNQPLDALIALEVCPLSEEYPIKDGESPILLSQDAYGIYDEGLNGQVRQSAKQLDIPVQLTILSQFGSDASIAMKFGHVARAACLAFPTQNTHGYEIAHLGAIANCIDLLKAFCETEF, MGSDKIHHHHHHMWGPPWMPDQDGNMTRESGYFQCTNRNKYSVAVDITTPEGQALIYEIAKTADVVIENYKTGSLAKYGLDYASLSELNPNIVYCSITGFGQDGPRAEEPGYDFIIQGMSGLMSITGEPDDVAGGGAQKVGVAVVDIQTGLYSTIAIQAALIARSHTGRGQYIDMSLLDVQVAALANQGMNYLASGKAPQRMGNQHPSIVPYQTFKAKDKEFIIACGNDKQFKDLCIAIGYPELLENEKFVRNQDRVKYRNELIPLLSEHFLRKTAKEWVDMIHALKVPVGVINSIEDALAEPQIVYRNLVVNIPHRLNENFQTIGSPIKLSDTPVEYHHAPPELGEHTAQILSRFKTAEELAALKEKGIIDGKIA, MGSDKIHHHHHHMWSHQSWQDSVYGHQTKATERLAHYAHIFNSVEGNTSFYATPAPQTVLNWHSATPDNFRFTFKLPQRITHQKQLQDCNQDLRDFFHIMAPLIEKTGIWKIQLPAHFGPEQLPVLARFLDHVPQGLTYGVEVRHFAFFAKGDAERTLNRLLIDKKVNRIIMDSRPVFALPPFNETIIDAHKKKPRVPVHPIATANNPVVRFIGQADGTLALLTQLGTTALPKDNDAFFTHWLKQLTLWLNEGREPYLFIHTPDNQTAPELAARLYRKLQLHIAEHIQLADIKLLEKKAEEKSAQMGLDW, MGSDKIHHHHHHMWYKNNSFRFTRRFFMRVRVSAVFEQAGEILCMKYIYGGKEVFALPGGGVDKDIPLQEAIVNEWKEELGIKVDIGDIILIGEAPAGKRHPQTLHVVFEAREIRGTPKVRSDATHSLDVAWVPLEKLSSLPLYPDVGKQLSASFSEEPRRSVAFISNCMERGYW, MGSDKIHHHHHHMYEDELIFLEKTASIDIFEYSEQGIKTILDSPKHYNHGLMIRAAKLSREGFYSLVKYNSSYMLLVPLAKDKGLILSPKIDSLNNSESSFSNIDFINHSTSLAELAYFLYTKESAPNWNRVIYNLNEISDPVKQVQPMKNLHAFHRYANKMVDYFAQLDDKKFKLYINKMKSCQVFGDTLTTSNVIRGEKDILIDIISKLTDRSEKEGLPFEKVVFIQSVSVQKIELQANILNFNGWLEEIPYAYFNELKKWRENLFIDKADKIERYLKLNSRENIKLKDISKELGISEQSLNTIFKKKYGMTTKKYLIELKIENDKELLTTTELKIHDISEYLSFIDESYFISTFNKSCGMTPSKYRQNYIDKLLNKKSV, MGSDKIHHHHHHMYIDGVFSGGGVKGIALAGAYEVLEEKGFRFKRVAGTSAGAIIAAFIASGYTSKEIHALIEEVDGEKLLDQRYSFLPLKMLQWVSIYWRLGLYKGDTIEKWIADLLRAKGIRVFGDLQKGSLRLIASDLTNGTMIVLPDDLARYGLNPDMFPVARAVRMSCSIPYFFEPIKLKTDTGTATVVDGGVLSNFPIWLFSKERKRPVIGVTLAPRERERPKKNIRNAFELFGALFETMKDAHDARHIASRYEQNIIFLPVDDVMATDFHLTQQKKLALIELGKRRTELFLKQWTY
